Here are results for one protein from publication PMC8118686, “Identification of a RAD52 Inhibitor Inducing Synthetic Lethality in BRCA2-Deficient Cancer Cells” (Frontiers in Pharmacology, 2021).

The series concerns the molecule itself. Briefly: cross-linking; called EMSA by the paper: 1 uM 6His-RAD52 in 25 mM HEPES pH 7.5, 1 mM DTT, 10 mM MgCl2, 150 mM NaCl, 0.1 mg/ml BSA, 37 °C; with or without 400 uM 50-nt ssDNA oligo and 100 uM C791-0064; 0.1% glutaraldehyde 3 min; 4-20% SDS-PAGE, Western blot with anti-Histag.

B1: Human 6His-RAD52 protein (natural protein, UniProt P43351 1-418, looked up)
chain: MSGTEEAILGGRDSHPAAGGGSVLCFGQCQYTAEEYQAIQKALRQRLGPEYISSRMAGGGQKVCYIEGHRVINLANEMFGYNGWAHSITQQNVDFVDLNNGKFYVGVCAFVRVQLKDGSYHEDVGYGVSEGLKSKALSLEKARKEAVTDGLKRALRSFGNALGNCILDKDYLRSLNKLPRQLPLEVDLTKAKRQDLEPSVEEARYNSCRPNMALGHPQLQQVTSPSRPSHAVIPADQDCSSRSLSSSAVESEATHQRKLRQKQLQQQFRERMEKQQVRVSTPSAEKSEAAPPAPPVTHSTPVTVSEPLLEKDFLAGVTQELIKTLEDNSEKWAVTPDAGDGVVKPSSRADPAQTSDTLALNNQMVTQNRTPHSVCHQKPQAKSGSWDLQTYSADQRTTGNWESHRKSQDMKKRKYDPS
notes: RAD52, human; The size of the oligomer is not measured here; heptamer is only cited
B1: the binding result is “binds”.
